Test results published in patent US20090175886A1 (Bristol-Myers Squibb, published 2009).
Several values for one entry are separate records, joined by “and”; a condition that tells them apart may be missing. Identical values can stand only once.

Legend:
[1] = molecular target: human CD30 expressed on cells (L540, L428, L1236, Karpas cell lines; activated human peripheral blood cells) (human) (UniProt P28908); experiment: Scatchard analysis (Bmax), 125I-labelled antibody on activated human peripheral blood cells
[2] = molecular target: cynomolgus CD30 on PHA, Con A and rIL-2 activated cynomolgus peripheral blood mononuclear cells (cynomolgus monkey); experiment: Scatchard analysis, 125I-labelled antibody on PHA/Con A/IL-2 activated cynomolgus peripheral blood mononuclear cells
[3] = molecular target: cynomolgus CD30 on PHA, Con A and rIL-2 activated cynomolgus peripheral blood mononuclear cells (cynomolgus monkey); experiment: Scatchard analysis (Bmax), 125I-labelled antibody on activated cynomolgus peripheral blood mononuclear cells
[4] = molecular target: human CD30 expressed on cells (L540, L428, L1236, Karpas cell lines; activated human peripheral blood cells) (human) (UniProt P28908); experiment: flow cytometry on CD30-expressing L540 cells, FITC anti-human secondary antibody
[5] = molecular target: human FcRgammaIIIa, Val^158 allotype (human) (UniProt P08637); experiment: SPR (Biacore): mAb captured on a surface coated with recombinant human CD30, FcRγIIIa Val158 (CD16-Val) flowed over, equilibrium signal fitted to a one-site model; Binding Constants (nM)
Sequence of human FcRgammaIIIa, Val^158 allotype (human) (P08637 17-208 F176V limits assumed): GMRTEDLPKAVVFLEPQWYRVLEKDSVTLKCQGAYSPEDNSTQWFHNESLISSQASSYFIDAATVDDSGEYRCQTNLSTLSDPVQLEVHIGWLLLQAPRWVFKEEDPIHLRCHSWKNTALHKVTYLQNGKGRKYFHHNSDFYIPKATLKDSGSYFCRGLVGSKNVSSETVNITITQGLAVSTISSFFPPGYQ

[6] = molecular target: human CD30 expressed on cells (L540, L428, L1236, Karpas cell lines; activated human peripheral blood cells) (human) (UniProt P28908); experiment: Scatchard analysis, 125I-labelled antibody on PHA/Con A/IL-2 activated human peripheral blood cells
[7] = molecular target: human CD30 expressed on cells (L540, L428, L1236, Karpas cell lines; activated human peripheral blood cells) (human) (UniProt P28908); experiment: Scatchard analysis, 125I-labelled antibody on L540 cells
[8] = molecular target: human CD30 expressed on cells (L540, L428, L1236, Karpas cell lines; activated human peripheral blood cells) (human) (UniProt P28908); experiment: cell-based or functional assay
[9] = molecular target: human FcRgammaIIIa, Phe^158 allotype (human) (UniProt P08637); experiment: SPR (Biacore): mAb captured on a surface coated with recombinant human CD30, FcRγIIIa Phe158 (CD16-Phe) flowed over, equilibrium signal fitted to a one-site model; Binding Constants (nM)
Sequence of human FcRgammaIIIa, Phe^158 allotype (human) (P08637 17-208 limits assumed): as the sequence (P08637 17-208 F176V limits assumed) above, with V160F counted along it

[10] = molecular target: human CD30 expressed on cells (L540, L428, L1236, Karpas cell lines; activated human peripheral blood cells) (human) (UniProt P28908); experiment: Scatchard analysis (Bmax), 125I-labelled antibody on L540 cells
[11] = molecular target: T1, human CD30 expressed on cells (L540, L428, L1236, Karpas cell lines; activated human peripheral blood cells) (human, UniProt P28908 19-595); experiment: cell-based or functional assay
T1 sequence (looked up): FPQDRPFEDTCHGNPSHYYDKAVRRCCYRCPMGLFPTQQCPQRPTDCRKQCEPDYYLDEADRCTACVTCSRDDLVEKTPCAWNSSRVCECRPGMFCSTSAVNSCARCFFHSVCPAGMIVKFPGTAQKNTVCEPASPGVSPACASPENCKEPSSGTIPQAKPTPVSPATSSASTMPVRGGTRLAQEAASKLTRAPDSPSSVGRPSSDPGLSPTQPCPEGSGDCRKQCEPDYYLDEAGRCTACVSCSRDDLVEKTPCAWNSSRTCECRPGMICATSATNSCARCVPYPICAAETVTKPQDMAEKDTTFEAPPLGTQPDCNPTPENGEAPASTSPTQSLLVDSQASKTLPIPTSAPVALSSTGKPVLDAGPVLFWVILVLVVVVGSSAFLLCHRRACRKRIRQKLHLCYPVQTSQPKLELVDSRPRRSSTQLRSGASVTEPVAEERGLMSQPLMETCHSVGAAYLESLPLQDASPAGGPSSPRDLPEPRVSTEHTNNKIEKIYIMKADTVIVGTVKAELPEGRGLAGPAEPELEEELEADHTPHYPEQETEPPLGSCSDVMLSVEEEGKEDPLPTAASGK

[12] = molecular target: T1, human CD30 expressed on cells (L540, …); experiment: flow cytometry on CD30-expressing L540 cells, FITC anti-human secondary antibody
[13] = molecular target: T1, human CD30 expressed on cells (L540, …); experiment: Scatchard analysis, 125I-labelled antibody on PHA/Con A/IL-2 activated human peripheral blood cells
Method: (§1) Human or cynomolgus peripheral blood cells were stimulated with 2 μg/ml PHA, 10 μg/ml Con A, and 50 U/ml rIL-2 and cultured in RPMI1640 media containing 10% fetal bovine serum (FBS) at 1×10⁶ cells/ml density for 3 days. On the day of the study, the cells were washed and adjusted to 2×10⁷ cells/ml in binding buffer (RPMI1640+10% FBS). […] The cells were placed on ice until the initiation of the experiment. Millipore glass fiber filter plates (MAFBNOB50) were coated with 1% nonfat dry milk in water and stored a 4° C. overnight. The plates were washed three times with 0.2 ml of binding buffer. Fifty microliters of buffer alone was added to the maximum binding wells (total binding). Twenty-five microliters of buffer alone was added to the control wells. Varying concentration of ¹²⁵I-anti-CD30 antibody was added to all wells in a volume of 25 μl. Varying concentrations of unlabeled antibody at 300-400 fold excess were added in a volume of 25 μl to control wells (non-specific binding) and 25 μl of CD30 positive L540 cells or stimulated human or cynomolgus peripheral blood cells in binding buffer were added to all wells. The plates were incubated for 2 hours at 200 RPM on a shaker at 4° C. At the completion of the incubation the Millipore plates were washed twice with 0.2 ml of cold wash buffer (RPMI1640, 10% FBS, 500 mM NaCl). The filters were removed and counted in a gamma counter. […]

[14] = molecular target: T2, cynomolgus CD30 on PHA, Con A and rIL-2 activated cynomolgus peripheral blood mononuclear cells (cynomolgus monkey, UniProt A0A2K5VW07 29-603); experiment: Scatchard analysis, 125I-labelled antibody on PHA/Con A/IL-2 activated cynomolgus peripheral blood mononuclear cells
T2 construct: whole, on cells
T2 sequence: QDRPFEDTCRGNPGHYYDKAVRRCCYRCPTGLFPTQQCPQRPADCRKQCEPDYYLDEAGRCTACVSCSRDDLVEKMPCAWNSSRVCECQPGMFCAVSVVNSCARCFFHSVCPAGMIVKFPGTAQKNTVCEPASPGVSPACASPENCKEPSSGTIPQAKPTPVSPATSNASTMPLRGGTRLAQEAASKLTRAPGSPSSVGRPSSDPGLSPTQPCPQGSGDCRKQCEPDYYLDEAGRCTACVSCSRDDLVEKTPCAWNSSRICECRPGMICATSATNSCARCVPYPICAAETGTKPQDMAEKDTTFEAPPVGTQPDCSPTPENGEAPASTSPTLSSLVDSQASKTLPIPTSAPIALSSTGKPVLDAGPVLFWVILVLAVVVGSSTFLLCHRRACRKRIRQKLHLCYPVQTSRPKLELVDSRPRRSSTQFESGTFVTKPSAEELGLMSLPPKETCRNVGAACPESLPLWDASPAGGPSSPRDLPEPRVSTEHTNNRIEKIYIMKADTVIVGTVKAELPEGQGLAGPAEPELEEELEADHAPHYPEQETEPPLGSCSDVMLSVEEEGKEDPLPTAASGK
Method: as §1

[15] = molecular target: T1, human CD30 expressed on cells (L540, …); experiment: cell-based or functional assay; remark: listed apart in the source
[16] = molecular target: T1, human CD30 expressed on cells (L540, …); experiment: Scatchard analysis, 125I-labelled antibody on L540 cells
Method: as §1

fucosylated 5F11 human anti-CD30 monoclonal antibody produced in CHO DG44 cells
Receptors Per Cell (ave) (receptors per cell) [1]: 45700
Kd [2]: 0.47 nM
Receptors Per Cell (ave) (receptors per cell) [3]: 72800
EC50 [4]: 0.18 µg/mL
Kd [5]: 177 nM
Kd [6]: 1.08 nM
Kd [7]: 1.37 nM
% Lysis, 51Cr release ADCC, Karpas cells, 25 µg/ml antibody, target:effector 1:50 [8]: 19%
% Lysis, 51Cr release ADCC, L428 cells, 25 µg/ml antibody, target:effector 1:50 [8]: 20%
% Lysis, 51Cr release ADCC, L540 cells, 25 µg/ml antibody, target:effector 1:50 [8]: 42%
% Lysis, 51Cr release ADCC, L1236 cells, 25 µg/ml antibody, target:effector 1:50 [8]: 4%
% cell lysis, ADCC, Karpas 299 cells, cynomolgus effector cells, 10 µg/mL antibody [8]: 7% and 10%
EC50 of ADCC, Karpas cells [8]: 0.25 µg/mL
EC50 of ADCC, L428 cells [8]: 0.1 µg/mL
EC50 of ADCC, L540 cells [8]: 0.042 µg/mL
EC50 of ADCC, L540 cells, heterozygous FcRγIIIaPhe/Val^158 human effector cells [8]: 0.0589 µg/mL
EC50 of ADCC, L540 cells, homozygous FcγIIIa Phe/Phe^158 effector cells [8]: 0.0337 µg/mL
EC50 of ADCC, L1236 cells [8]: 1.22 µg/mL
maximal percent cell lysis, ADCC, L540 cells, heterozygous FcRγIIIaPhe/Val^158 human effector cells [8]: 31%
maximal percent cell lysis, ADCC, L540 cells, homozygous FcγIIIa Phe/Phe^158 effector cells [8]: 15%
Kd [9]: 1090 nM
Receptors Per Cell (ave) (receptors per cell) [10]: 2.5e+06

B1: 5F11 LEX^Opt mAb (glyco-optimized 5F11 produced in Lemna minor with FucT/XylT RNAi, vector MDXA04) (antibody, V domains shown)
VH: QVQLQQWGAGLLKPSETLSLTCAVYGGSFSAYYWSWIRQPPGKGLEWIGDINHGGGTNYNPSLKSRVTISVDTSKNQFSLKLNSVTAADTAVYYCASLTAYWGQGSLVTVSS
VL: DIQMTQSPTSLSASVGDRVTITCRASQGISSWLTWYQQKPEKAPKSLIYAASSLQSGVPSRFSGSGSGTDFTLTISSLQPEDFATYYCQQYDSYPITFGQGTRLEIK
notes: N-glycans at Asn 297 are 95.8% GnGn (G0), with no fucosyl or xylosyl; also called MDXA04 derived mAb; glyco-optimized anti-CD30 mAb
EC50 of ADCC, L540 cells, FcγRIIIa Phe/Phe^158 effector cells [11]: 0.0199 µg/mL
EC50 of ADCC, L540 cells, FcγRIIIa Val/Phe^158 effector cells [11]: 0.0131 µg/mL
fold increase in ADCC activity compared to 5F11 CHO [11]: 20 fold
EC50 [12]: 0.196 µg/mL
Kd [9]: 41 nM

B2: defucosylated 5F11 human anti-CD30 monoclonal antibody produced in Ms704 (FUT8-/-) cells (antibody, V domains shown)
VH: B1 VH
VL: B1 VL
notes: also called defuc-5F11; defucosylated anti-CD30 antibody
Kd [13]: 2.66 nM
Kd [14]: 0.83 nM
% Lysis ratio fucosyl-:fucosyl+, ADCC, Karpas cells [15]: 2.63
% Lysis ratio fucosyl-:fucosyl+, ADCC, L428 cells [15]: 2.15
% Lysis ratio fucosyl-:fucosyl+, ADCC, L540 cells [15]: 1.61
% Lysis ratio fucosyl-:fucosyl+, ADCC, L1236 cells [15]: 3.25
EC50 of ADCC, Karpas cells [15]: 0.032 µg/mL
EC50 of ADCC, L428 cells [15]: 0.009 µg/mL
EC50 of ADCC, L540 cells [15]: 0.009 µg/mL
EC50 of ADCC, L1236 cells [15]: 0.045 µg/mL
EC50 ratio fucosyl+:fucosyl-, ADCC, Karpas cells [15]: 7.8
EC50 ratio fucosyl+:fucosyl-, ADCC, L428 cells [15]: 11.1
EC50 ratio fucosyl+:fucosyl-, ADCC, L540 cells [15]: 4.7
EC50 ratio fucosyl+:fucosyl-, ADCC, L1236 cells [15]: 27.1
Kd [16]: 1.93 nM
